According to patent US6514698:
Like-named read-outs stand apart in the source and are kept apart here.

Legend:
[1] = test system: M.CviRI DNA methyltransferase
[2] = biological target: T1, M.BamHI DNA methyltransferase (UniProt P23941)
T1 sequence: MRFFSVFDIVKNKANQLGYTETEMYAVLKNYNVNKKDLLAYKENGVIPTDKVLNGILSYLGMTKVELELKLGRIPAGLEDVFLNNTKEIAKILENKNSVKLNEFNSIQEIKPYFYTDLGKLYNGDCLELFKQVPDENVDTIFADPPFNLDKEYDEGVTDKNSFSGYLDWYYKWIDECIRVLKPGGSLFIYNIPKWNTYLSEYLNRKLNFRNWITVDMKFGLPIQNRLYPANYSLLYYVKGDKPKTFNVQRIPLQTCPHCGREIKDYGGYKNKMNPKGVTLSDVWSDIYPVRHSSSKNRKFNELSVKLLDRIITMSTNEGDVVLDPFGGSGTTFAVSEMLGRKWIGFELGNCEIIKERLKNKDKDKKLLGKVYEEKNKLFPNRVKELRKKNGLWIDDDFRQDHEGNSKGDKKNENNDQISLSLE

[3] = biological target: T2, M.EcoRI DNA methyltransferase (UniProt P00472)
T2 sequence: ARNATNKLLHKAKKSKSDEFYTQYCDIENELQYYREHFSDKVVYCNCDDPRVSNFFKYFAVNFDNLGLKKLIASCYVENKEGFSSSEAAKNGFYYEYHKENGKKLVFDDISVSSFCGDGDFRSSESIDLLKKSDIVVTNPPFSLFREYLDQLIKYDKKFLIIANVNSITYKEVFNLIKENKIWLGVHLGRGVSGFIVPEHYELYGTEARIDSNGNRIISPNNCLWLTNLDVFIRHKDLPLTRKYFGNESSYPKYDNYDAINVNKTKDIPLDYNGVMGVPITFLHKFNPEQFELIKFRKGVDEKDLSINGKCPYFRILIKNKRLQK

[4] = biological target: M.HaeIII DNA methyltransferase (UniProt P20589); details: background 615
[5] = 3H-methyl-SAM, 23 C, 5 mM EDTA, no MTase 574

## GGTGGGAGAAGAAGATAAAAAGTAACATCTTTCTGCCTTCCAGATGATTCGAAGAATTTCTCCATCCAAGTGCGGCAGGTGGAGGATTGCCCTGTGGACATCTACTACTTGATGGACCTGTCTTACTCCATGCCGGATGATCTGTGGAGCATCCAGAACCTGGGTACCAAGCTGGCCACCCAGATGCGAAAGCTCACCAGTAACCTGCGGATTGGCTTCGGGGCATTTGTGGACAAGCCTGTGTCACCATACATGTATATCTCCCCACCAGAGGCCCTCGAAAACCCCTGCTATGAGTAAGTCCCTCCTCCAGACGCCAGGACAGCATCCTTTGCCCAGGAAGGTCCAAGTCCTGGTTCCTA (double strand) [GPIIIa Yuka/a 362 bp amplicon]
[1]; background 472
  activity: 506 cpm

## GGTGGGAGAAGAAGATAAAAAGTAACATCTTTCTGCCTTCCAGATGATTCGAAGAATTTCTCCATCCAAGTGCGGCAGGTGGAGGATTGCCCTGTGGACATCTACTACTTGATGGACCTGTCTTACTCCATGCCGGATGATCTGTGGAGCATCCAGAACCTGGGTACCAAGCTGGCCACCCAGATGCGAAAGCTCACCAGTAACCTGCGGATTGGCTTCGGGGCATTTGTGGACAAGCCTGTGTCACCATACATGTATATCTCCCCACCAGAGGCCCTCGAAAACCCCTGCTATGAGTAAGTCCCTCCTCCAGACGCCAGGACAGCATCCTTTGCCCAGGAAGGTCCAAGTCCTGGTTCCTA (double strand) [GPIIIa Yukb/b 362 bp amplicon]
[1]; 3H-methyl-SAM, 23 C, 5 mM EDTA, background 501
  activity: 12200 cpm

## pBluescript 191 bp amplicon predigested with BamHI
[2]; site cleaved, background 661
  activity: 999 cpm
[3]; background 661
  activity: 32800 cpm

## pBluescript 191 bp amplicon predigested with EcoRI
[2]; background 750, nearby frayed EcoRI end interferes
  activity: 1310 cpm
[3]; site cleaved, background 750
  activity: 770 cpm

## pBluescript SK+ polylinker 191 bp amplicon
[2]; [5]
  activity: 69700 cpm
[3]; [5]
  activity: 85000 cpm

## pUC19
[1]; background 615
  activity: 118000 cpm
[4]
  activity: 26200 cpm
